Results reported in patent publication US20110052585A1 (Sanofi, published 2011).

Biological target: T1, rhIL-23 (human, UniProt Q9NPF7 20-189; P29460 23-328)
T1 construct: Recombinant human IL-23 coated on immunoassay plates; also called IL-23 ligand
T1 sequence (looked up) 1: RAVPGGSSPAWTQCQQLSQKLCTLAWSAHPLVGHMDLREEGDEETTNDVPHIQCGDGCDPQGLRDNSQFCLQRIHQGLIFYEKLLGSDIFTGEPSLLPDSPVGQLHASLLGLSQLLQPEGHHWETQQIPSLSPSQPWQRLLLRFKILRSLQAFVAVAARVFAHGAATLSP
T1 sequence (looked up) 2: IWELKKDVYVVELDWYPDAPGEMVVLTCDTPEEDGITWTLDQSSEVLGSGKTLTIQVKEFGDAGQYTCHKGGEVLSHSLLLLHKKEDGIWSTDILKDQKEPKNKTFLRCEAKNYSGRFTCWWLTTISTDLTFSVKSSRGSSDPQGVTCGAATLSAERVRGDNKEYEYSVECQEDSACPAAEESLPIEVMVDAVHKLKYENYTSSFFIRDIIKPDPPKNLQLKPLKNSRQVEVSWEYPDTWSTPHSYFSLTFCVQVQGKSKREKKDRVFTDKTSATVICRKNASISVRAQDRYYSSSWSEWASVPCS
Experiment: ELISA, ligand coated on plate, conditioned medium with soluble receptor
Protocol: Ligand Binding Assays: Conditioned media containing […] were generated in transfected or virally-infected 293 cells. Receptor concentrations in collected media were determined by ELISA and Western blot. Ligand binding assays were performed on immunoassay plates coated with target ligand rhIL-17 or rhIL-23. Typically conditioned media containing serial dilutions of soluble receptor were incubated with immobilized ligand 1-2 hours at room temperature. Unbound ligand was washed away and bound protein was detected and quantified with receptor-specific detection antibodies, as is performed in an ELISA.
In order to test the ability of the soluble IL-17 and IL-23 receptor fusions to bind to their respective ligands, the following experiments were conducted. In one experiment, the ability of the soluble receptors to bind immobilized ligands was explored. Conditioned media for each receptor was generated from Ad-infected A459 cells and quantified by ELISA as described. Binding was measured on ELISA plates pre-coated with IL-23 or IL-17 ligand. Relative binding was compared to purchased receptor/Fc chimeras (R&D Systems, Minneapolis, Minn.). The control IL-17R/Fc from R&D contains human IL-17R(Met1-Trp320) fused to IEGRMD and human IgG1(Pro100-Lys330). […]

B1: sIL23R-9gly-CH3 (Fc fusion)
chain: GITNINCSGHIWVEPATIFKMGMNISIYCQAAIKNCQPRKLHFYKNGIKERFQITRINKTTARLWYKNFLEPHASMYCTAECPKHFQETLICGKDISSGYPPDIPDEVTCVIYEYSGNMTCTWNAGKLTYIDTKYVVHVKSLETEEEQQYLTSSYINISTDSLQGGKKYLVWVQAANALGMEESKQLQIHLDDIVIPSAAVISRAETINATVPKTIIYWDSQTTIEKVSCEMRYKATTNQTWNVKEFDTNFTYVQQSEFYLEPNIKYVFQVRCQETGKRYWQPWSSPFFHKTPETVPQVTSKAFQHDTWNSGLTVASISTGHLTGGGGGGGGGQPREPQVYTLPPSRDELTKNQVSLTCLVKGFYPSDIAVEWESNGQPENNYKTTPPVLDSDGSFFLYSKLTVDKSRWQQGNVFSCSVMHEALHNHYTQKSLSLSPGK
notes: Fusion to the CH3 domain of human IgG1 only, with no hinge or CH2; It was tested as conditioned medium from adenovirus-infected cells; also called hIL-23R-9gly-CH3 chimera; soluble IL-23r
binding result: binds
